In paper doi:10.1101/2021.02.16.431366 one finds stoichiometry N (CaM molecules per TRPV5 tetramer) data, which are given here for one substance.

The target of this test is mCherry-TRPV5 (rabbit) (UniProt Q9XSM3). Description: single molecule photobleaching counting.
Chain of mCherry-TRPV5 (rabbit) (Q9XSM3 whole entry): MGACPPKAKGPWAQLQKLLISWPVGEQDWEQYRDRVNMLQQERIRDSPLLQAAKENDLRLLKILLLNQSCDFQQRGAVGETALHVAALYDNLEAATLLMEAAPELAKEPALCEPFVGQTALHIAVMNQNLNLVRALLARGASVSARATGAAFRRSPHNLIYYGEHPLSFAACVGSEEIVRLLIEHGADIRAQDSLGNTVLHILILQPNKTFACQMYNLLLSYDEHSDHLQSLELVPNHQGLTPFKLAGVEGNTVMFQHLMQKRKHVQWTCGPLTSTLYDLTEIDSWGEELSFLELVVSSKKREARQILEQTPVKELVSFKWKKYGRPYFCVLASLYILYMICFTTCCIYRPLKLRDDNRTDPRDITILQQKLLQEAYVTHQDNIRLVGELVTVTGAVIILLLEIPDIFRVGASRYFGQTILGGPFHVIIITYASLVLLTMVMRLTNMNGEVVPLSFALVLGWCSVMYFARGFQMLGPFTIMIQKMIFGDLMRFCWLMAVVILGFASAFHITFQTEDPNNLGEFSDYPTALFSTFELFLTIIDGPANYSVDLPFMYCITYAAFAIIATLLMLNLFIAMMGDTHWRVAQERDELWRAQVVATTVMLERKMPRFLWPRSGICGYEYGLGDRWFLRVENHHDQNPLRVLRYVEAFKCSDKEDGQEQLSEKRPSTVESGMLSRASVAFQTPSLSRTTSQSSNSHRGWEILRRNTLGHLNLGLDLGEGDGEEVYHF

“CaM-eGFP (from UniProt P0DP29 1-149) (natural protein)”: the stoichiometry N (CaM molecules per TRPV5 tetramer) is 2.
